Data taken from the RNAGym collection of RNA variant scans (doi:10.7554/elife.80360).

B1: HDV Ribozyme (parent)
chain: GGCCGGCAUGGUCCCAGCCUCCUCGCUGGCGCCGGCUGGGCAACAUUCCGAGGGGACCGUCCCCUCGGUAAUGGCGAAUGGGACCCA

Variants of: B1
Assay: self-cleavage, relative activity (ratio to wild type); higher = more cleavage; co-transcriptional

Row | Variant | self-cleavage
1 | C24U U72A | 0.404
2 | U23C A43G | 0.277
3 | U23C A43C | 0.465
4 | U23C G82C | 0.465
5 | U23G G50U | 0.607
6 | U23G A83U | 0.107
7 | U23G A83C | 0
8 | U23C G73A | 0.525
9 | U23C G73U | 0.148
10 | U23C G73C | 0.269
11 | G25A A42C | 0.0462
12 | U23C G40U | 0.587
13 | G25C G53U | 0.193
14 | G25C G53A | 0
15 | G25C G53C | 0.356
16 | C24A C44A | 0.217
17 | G25C G50U | 0.0811
18 | G25C G50A | 0.0354
19 | C24U G67C | 0.78
20 | G25A C33G | 0.0228
21 | G25A C33A | 0.0863
22 | U23G A70C | 0.571
23 | C24U C48G | 0.627
24 | C24G C57U | 0.14

Row | Variant | self-cleavage
25 | C24U G73C | 0.0773
26 | C24G C44U | 0.0978
27 | C24G C44A | 0.0297
28 | U23C G54C | 0.673
29 | G25C G38C | 0.119
30 | G25C G38U | 0.0791
31 | C24G G68A | 0.22
32 | U23G G39C | 0.158
33 | C24G G40U | 0.17
34 | U23C G68U | 0.897
35 | U23C G68A | 0.87
36 | C24U C44U | 0.434
37 | C24U A87C | 0.739
38 | U23C U37C | 1.15
39 | U23C U37A | 0.0536
40 | U23G G76A | 0.895
41 | C24G G82U | 0.0302
42 | C24A G53C | 0.785
43 | C24A G53A | 0.893
44 | C24A G54C | 0.741
45 | C24A G54A | 0.774
46 | C24U A78C | 0.196
47 | G25C U60G | 0.101
48 | U23G C85U | 0.898

Row | Variant | self-cleavage
49 | U23G C85G | 0.643
50 | U23G G74U | 0.0863
51 | U23G G74C | 0.188
52 | C24U C75A | 0.0639
53 | U23G C44U | 0.325
54 | C24A A42C | 0.0639
55 | U23C G53A | 0.849
56 | C24A G80U | 0.198
57 | C24U C41U | 0.616
58 | C24U C41G | 0.437
59 | U23G C32A | 0.0652
60 | U23G C32U | 0.6
61 | G25C U65G | 0.0875
62 | C24A A78C | 0.133
63 | C24A G59A | 0.842
64 | C24A C64A | 0.803
65 | U23G G25C | 0
66 | U23C A45C | 0.573
67 | G25C C86G | 0.332
68 | U23G C24G | 0.16
69 | G25C U46A | 0
70 | C24U G50C | 0.554
71 | C24U G50A | 0.726
72 | C24A U60A | 0.535

Row | Variant | self-cleavage
73 | C24G G55A | 0.166
74 | U23G C66G | 0.32
75 | U23G G29A | 0
76 | G25C G35A | 0.0346
77 | C24U C36U | 0.402
78 | C24U C36G | 0.141
79 | G25C A45G | 0.104
80 | G25C G29C | 0.0489
81 | C24U G74U | 0.143
82 | C24A A70G | 0.804
83 | U23G G67C | 0.59
84 | U23G G82U | 0.17
85 | U23G G82A | 0.0449
86 | C24U U79A | 0.208
87 | U23G A77G | 0.554
88 | C24U C58U | 0.772
89 | C24U C58A | 0.789
90 | C24U C58G | 0.811
91 | U23C C64U | 0.786
92 | C24U U65A | 0.469
93 | U23C C30A | 0.369
94 | G25C G55A | 0.158
95 | U23G C41G | 0.597
96 | C24G C61A | 0.112

Row | Variant | self-cleavage
97 | C24G C61G | 0.0264
98 | C24A G28C | 0.0773
99 | G25A A70C | 0.138
100 | G25A A70U | 0.17
101 | G25C G31U | 0.214
102 | C24U G81U | 0.169
103 | U23G C33U | 0.569
104 | C24U A42C | 0.125
105 | C24U A42U | 0.17
106 | G25C C58G | 0.161
107 | C24G G52C | 0.172
108 | U23A G81A | 0.305
109 | U23A G81C | 0.306
110 | U23A G81U | 0.134
111 | C24A C41G | 0.536
112 | U23C A71G | 0.9
113 | G25C A51U | 0.148
114 | C24U G28A | 0.172
115 | C24U G28C | 0.0475
116 | G25C C48G | 0.133
117 | G25C C48U | 0.26
118 | G25C C66U | 0.0563
119 | C24A A56U | 0.872
120 | C24A A56C | 0.966

Row | Variant | self-cleavage
121 | G25C A78U | 0.131
122 | G25A C63A | 0.125
123 | C24A C62A | 0.946
124 | C24A C62U | 0.89
125 | G25C G54C | 0.138
126 | U23G G34A | 0.0811
127 | C24A U69C | 0.712
128 | C24A U69G | 0.623
129 | U23G U27G | 0.529
130 | C24A C61A | 0.906
131 | G25A U47G | 0.32
132 | G25A U47A | 0.0831
133 | U23A U60G | 0.923
134 | U23A U60A | 0.98
135 | G25C C30A | 0.0511
136 | U23G U65G | 0.674
137 | G25A G52A | 0.0863
138 | G25A G52C | 0.174
139 | G25A A71G | 0.0594
140 | U23C G34C | 0.172
141 | C24A C85A | 0.591
142 | C24A C57G | 0.869
143 | C24G C64A | 0.117
144 | G25C C63G | 0.0875

Row | Variant | self-cleavage
145 | U23C G35U | 0.354
146 | G25A U65C | 0.208
147 | U23C G52C | 1.01
148 | C24G C85U | 0.107
149 | C24G C85A | 0.141
150 | U23A U65A | 0.778
151 | G25C C41G | 0
152 | G25A U37G | 0.104
153 | U23C C62A | 0.762
154 | G25C U69C | 0.175
155 | U23G G59U | 0.886
156 | G25A A77G | 0
157 | G25A A77U | 0
158 | U23G U79C | 0.125
159 | U23G U79G | 0.192
160 | U23C C63G | 0.813
161 | C24U G59C | 0.845
162 | G25C C49A | 0.0594
163 | C24A A51C | 0.516
164 | U23G A56U | 0.759
165 | C24A C49U | 0.623
166 | C24A G74C | 0.0326
167 | U23C A42G | 0.227
